# Laboratory results published in paper doi:10.1101/2021.03.15.435440 (bioRxiv, 2021).
# B1: Ab16 Fab (Fab, V domains shown)
# VH: EVQLQQSGPELVKPGASVKISCKASGYSFNNYYMNWVKQSPEKSLEWIGEINPNSGYTSYNQKFRAKATLTVDKSSTTAYMQLKSLTSEDSAVYYCARYFGNLFAMDFWGQGTSVTVS
# VL: DILMTQSPSSMSVSLGDTVSITCHASQGIGSNIGWLQQKPGKSFKGLIYLGTNLEDGVPSRFSGSGSGADYSLTISSLESEDFADYYCVQYVQFPYTFGGGTKLEIK
# Molecular target: SARS-CoV-2 spike (6P) (SARS-CoV-2, Wuhan-Hu-1 reference, UniProt P0DTC2, stabilised)
# Experiment: cryo-EM structure
binder,measurement,value
B1,binding result,binds
